Laboratory results taken from a protein production outcome set (Wang et al. 2014).

Experiment: label from the status in PepcDB records

Sequence	protein production
MSSSPEKKRRKKLSPESNSLPNDLIVTILARLSQSYYPKLSLVSKTFRAILASPELYQTRILLSRTETFLYVCLSFPGEPNPGWFTLYRKPNQTLTTKKKKNSVHLLAPILNSPPVEFPSLIAVGSYLYAFRAAIEEGTSDSLNCVEVYNTDTQTWIPVPPNKRIFKLQHMKGMLYMKVSKLLSFVAQDAEELAPLFPKLRSLLSTEVVAFKPKVSEGYEVLGFSVNTDLGRGSFCMIEEITYHYDPSVKFRWRRRQGGVWRSLVGLEGLPKFARYSSVKLADCGGKLVVLWHKYVPASGYEEKMVWCAEISLEKRSKKEIWGKIEWFDAVLRVPKYYQFVGAKSATV	failed
MSLEAAGGIVWRWKAGSDIANDPAIASSKSAQEQLDSIEVCIVHRPKYDDWSWPKGKLEQNETHRHAAVREIGEETGSPVKLGPYLCEVEYPLSEEGKKTRHSHDCTADTKHTLYWMAQPISADDAEHLLDAFGPVHRADVGEINDIVWVSVREARKILSHSTDKDTLAVFVDRVQEGAATAQNLLIVRHAKAESRKSWKGTDANRPITPKGAAMAFALNRELACFNPTRLATSPWLRCQETLQVLSWQTERPMEHINTLTEDAFAEHPAVSWLAFREQITQTLNSRETTAICMHRPVIGGMYDHLRGLCARKQLAKQLIAKSPYMPTGTAMSLFIIDTPQGPSIIDIQKVSPIVYEGHHHHHH	not failed
LSQAEQDKLDAAVFRQLLQHLDQHKEVQNIDLMILADFCRNCLCKWYAAEAEKQGLDLNIDDARERVYGMTYDEWKANHQPPATPEQLAAFEAKTKSK	failed
MNPCGIQRYQTQMYTQVSYDFRLSWSSGKRSASGFEAVGGAKMAEEKLGMKTQVPASIESQKPRPKKAPEFPIVEKLNWLIHLYYIRKDYEACKAVIKEQLQETQGLCEYAIYVQALIFRLEGNIQESLELFQTCAVLSPQCADNLKQVARSLFLLGKHKAATEVYNEAAKLNQKDWEICHNLGVCYTYLKQFSKAQDQLHSALQLNKHDLTYIMLGKIHLLQGDLDKAIEIYKKAVEFSPENTELLTTLGLLYLQLGVYQKAFEHLGNALTYDPANYKAILAAGSMMQTHGDFDVALTKYRVVACAIPESPPLWNNIGMCFFGKKKYVAAISCLKRANYLAPFDWKILYNLGLVHLTMQQYASAFHFLSAAINFQPKMGELYMLLAVALTNLEDIENAKRAYVEAVRLDKCNPLVNLNYAVLLYNQGEKKGALAQYQEMEKKVHFLKDNNPLEFDSEMVEMAQKLGAALQVGEALVWTKPVKDPKSKHRTNSGSKSATLQQPLGSFQALGQAMSSAAAHRKIPSGAVGAQLTKPPSLPLEPEPEPTVEASPTEASEQNKEK	failed
MKISVITINYNNGEQLEATIQSVVSNVTVLRELLGEKAEYIVIDGGSVDCSVSVLQKYSEYISYWISEKDKGIYHAMNKGISVAQGEYCFFLNSGDTFYEDDTLKKALLFLKEDFVCGNAVLKYAGGINEWSAPEIVNTLFFMQRFSVCHQSLFIRTELLKSHPYNETLMIVADYEQMFYEIAVNHRSYKKIDLTICYYGCDGVSSDHEKADAEKRSVINEFRYLGYIEPDELWNVVSKLKIGTRKYRLLLSLAKCLTSSPKYWVRLEHHHHHH	not failed
MSWSKVKYFFFDTPEEKEAAQYGYEKEQTDMKKQQDPPEQQDVTFPKAQPKQNVVSIETAKQSSKVVLLEPRTYSEAQGIADHLKGRRAVVINLQRMSTDQAVRIVDFLSGTVYAIGGDIQKIGPKTFMCTPENVDIVGAISELFGEEEETNIKRWLEHHHHHH	not failed
MIETTKGGSGSYPIKTIVVLVQENRSFDHTLGWFKELNREIDGVTKSDPKSNTVSSSDTNSLRVVFGDQSQYVNPDPGHSIQDIYEQVFGKPWDSGKPDPNPGHPNMSGFAQNAERNKKGMSSAVMNGFKPNALPVYKELVQNFAICDRWFASVPASTQPNRLYVHSATSHGATSNDKKLLLEGFPQKTIFESLDEAGFSFGIYYQFPPSTLFYRNLRKLKYLTHFHQYGIQFKKDCKEGKLPNYVVVEQRWFDLLSTPANDDHPSHDVSEGQKLVKEVYEALRSSPQWNEILFIITYDEHGGFYDHVPTPVDGVPNPDGILGPPPYNFEFNRLGVRVPTFFISPWIEPGTVIHGPNGPYPRSQYEHSSIPATVKTIFKLKDFLSKRDSWAGTFESVITRDSPRQDCPETLSTPIKLRGTMAKENAQLSEFQEDLVIMAAGLKGDYKNEELIHKLCKETCVADASKYVTNAFEKFLEESRKARDRGCDENDIVYCVDDDDDHVVIPPQSHSEASNAAAQPKTQTSFFNKLFSCFIRHD	failed
MGHHHHHHSHGHAAVIGWKDLAYAGVIDSGGVCENIIAIPNPGTEPLNVAAVLCEGLDVVVYKGPEISLSPTRARPLLGKLRQGTAALVMVGTKVSSPALSVDAEITDYVGIGAGSGRIRGVEMQVRAVSKTHGVRSGKVLISRP	failed
MKPEHRMDTISKLEEGAETPVTGRVMKISSPRTFTTRKGREGKLANVIIADDTGELRAVFWTENIKLLKKFREGDVIRIKDVNIRGGFGGRKEAHLMPRSTVEVLDPLEHHHHHH	not failed
MQMMEQFYPKVSIVIPVYNGSDYMREAIDSALGQTYGNIEVIVVNDGSSDGGLTHEIALSYGGNIRYFAKENGGVASALNFAIRMMDGEYFSWLSHDDIYYPNKIETQIGYLAEHDRNAILYSDFELIDCLSKVIKPVNAGEIPPEQFLYNLITIGHLNGCTLLVPKRCFEETGFFDESLRSTQDYALWFTFAQKYRFEQIRKVLVKYRTHSNQGSYVIPTHSQEVNDLHIWFLEEASERGLLPIPDEGASRFFLEVAGIYKKRGIYRAADYSCSMALRHMRDEGGLALLRELPRVAYLKYYFRKKQFKSYLRELRRSTVRRSLLEHHHHHH	not failed
TEKTALHLRARRNFRDFRGVSRRTGEEWLVTVQDTEAHVPDVHEEVLGVVPITTLGPHNYCVILDPVGPDGKNQLGQKRVVKGEKSFFLQPGEQLEQGIQDVYVLSEQQGLLLRALQPLEEGEDEEKVSHQAGDHWLIRGPLEYVPSAKVEVVEERQAIPLDENEGIYVQDVKTGKVRAVIGSTYMLTQDEVLWEKELPPGVEELLNKGQDPLADRGEKDTAKSLQPLAPRNKTRVVSYRVPHNAAVQVYDYREKRARVVFGPELVSLGPEEQFTVLSLSAGRPKRPHARRALCLLLGPDFFTDVITIETADHARLQLQLAYNWHFEVNDRKDPQETAKLFSVPDFVGDACKAIASRVRGAVASVTFDDFHKNSARIIRTAVFGFETSEAKGPDGMALPRPRDQAVFPQNGLVVSSVDVQSVEPVDQRTRDALQRSVQLAIEITTNSQEAAAKHEAQRLEQEARGRLERQKILDQS	failed
MTFCYVNAYQGGYILYNKGTKSKEVAKMSTKKVYSFLSQAFIFSAIMLISNIIATHLPIPMPSSVIGLVILFSLLCLKVIKLEQVESLGTALTGIIGFLFVPSGISVINSLGVMGQYFVQILTVIVVATVILLAVTGLFAQFILGKDEKETEDTKELKVVNKGRKHGKVA	failed
EPAHGRQHTPCLFCDRLFASAEETFSHCKLEHQFNIDSMVHKHGLEFYGYIKLINFIRLKNPTVEYMNSIYNPVPWEKDEYLKPVLEDDLLLQFDVEDLYEPVSTPFS	not failed
MQSILKPITNLFTMIFQAIHGFVASLDIFGVGAGYVITIFLLTLLVRLILLPLNIKQTRSQQKMQEIQPEIAKLQKKYKNNPEKAQQEMMKLYKENNVNPMSGCLPLLIQMPILFALYYVFTGLTELQGVSFLWLGDLWAPDRTFILPILSAATTYLSSLLMTKFTQSQAGGAPGGMNMNTMNIVMAGMMGVMSIQFPSMLVLYWVIGNLIQMVQTYFIVVLPSRKRAKEKEQYKDIK	failed
MEQTEHIPPPGLVAQLRERSLLQTGDRFETLYGGRTNRVWRLHGPADDLVVKLYRRDFDNPLFGNDAQLEALCLDRLEGTGLAPQLRASGALGQEAWVVYDHAPGAPWRTDPAIAARMLANLHRRALDIPAPAGCNGSAAIRTHAEAILSRCDQPDRELLLKARPHTATIAPGPACLIHGDPVAGNLLVSGDQAILIDWQCPAIGDPAEDLAMFLSPAMQQVYRGAPLTAAEEQQFLSAYDNAGTVARYLSLKPWFHWRMAAYCRWRARNGAPDYAPAFELEHAALAAC	failed
